Results from patent publication US20220144916A1.

Experiments:
[1] = target: KJ1-26 clonotypic antibody
[2] = target: OVA/I-Ad on murine A20 antigen presenting cells pulsed with OVA323-339 peptide (hen; mouse) (UniProt P01012)

EC50 (read off the curve) [1]: 0.03 nM | Half-life [2]: 5.5 min
Substance: DO11.10 scTCR-Fc fusion protein (Vβ-linker-Vα format)
